Measurements as given in article PMC7982548 (The Journal of Biological Chemistry, 2005).
Read-outs that look alike come from different tables or passages of the source.

B1: N-terminal deleted SARS 3CL^pro (residues 8-303) (domain or fragment)
chain: FPSGKVEGCMVQVTCGTTTLNGLWLDDTVYCPRHVICTAEDMLNPNYEDLLIRKSNHSFLVQAGNVQLRVIGHSMQNCLLRLKVDTSNPKTPKYKFVRIQPGQTFSVLACYNGSPSGVYQCAMRPNHTIKGSFLNGSCGSVGFNIDYDCVSFCYMHHMELPTGVHAGTDLEGKFYGPFVDRQTAQAAGTDTTITLNVLAWLYAAVINGDRWFLNRFTTTLNDFNLVAMKYNYEPLTQDHVDILGPLSAQTGIAVLDMCAALKELLQNGMNGRTILGSTILEDEFTPFDVVRQCSGVTFQ
B2: full-length SARS coronavirus 3C-like proteinase (enzyme)
chain: SGFRKMAFPSGKVEGCMVQVTCGTTTLNGLWLDDTVYCPRHVICTAEDMLNPNYEDLLIRKSNHSFLVQAGNVQLRVIGHSMQNCLLRLKVDTSNPKTPKYKFVRIQPGQTFSVLACYNGSPSGVYQCAMRPNHTIKGSFLNGSCGSVGFNIDYDCVSFCYMHHMELPTGVHAGTDLEGKFYGPFVDRQTAQAAGTDTTITLNVLAWLYAAVINGDRWFLNRFTTTLNDFNLVAMKYNYEPLTQDHVDILGPLSAQTGIAVLDMCAALKELLQNGMNGRTILGSTILEDEFTPFDVVRQCSGVTFQ

Key:
[1] = target: the molecule itself; test: SEC
[2] = target: the molecule itself; test: ITC
[3] = target: the molecule itself; test: ITC; remark: listed apart in the source
[4] = target: 6-amino acid model peptide substrate ([…]); test: SPR

Binder	dimer/monomer ratio at 1 mg/ml [1]	dimer/monomer ratio at 2 mg/ml [1]	dimer/monomer ratio at 7 mg/ml [1]	Kd [2]	Kd [3]	dH [3]	Kd [4]
B1	0.65	0.66	0.8	261 ± 15 µM	262 ± 15 µM	-6.89 ± 0.25 kcal/mol	
B2					227 ± 34 µM	-8.28 ± 0.103 kcal/mol	~152 µM
